Conditions in all cases: protein: recombinant; tags: N-terminal 6xHis; mScarlet fusion; chain copies: 2; label: 32P (SRI primer strand); blunt
One data set has as its target ASCL2 DBD R5K (human, UniProt Q99929 50-102, R55K). Description: EMSA; preferred over CACGTG probe; 32P EMSA: ~50 nM probe, 0.5/1/2 uM protein, 30 min, reagents as in Feng et al., gel at 4 C; fluorescent EMSA: 5x buffer (50 mM Tris pH 7.5, 250 mM NaCl, 5 mM MgCl2, 20% glycerol, 2.5 mM DTT, 2.5 mM EDTA, 250 ug/ml poly(dI-dC), 1 mg/ml BSA) used at 1x plus half volume protein dialysis buffer (20 mM HEPES pH 7.9, 200 mM NaCl, 10% glycerol, 2 mM MgCl2), gel 0.5x TBE at 4 C.

The target of another data set is ASCL2 DBD V13R (human, UniProt Q99929 50-102, V63R). The data set is described as follows: EMSA; preferred over CAGCTG probe; 32P EMSA: ~50 nM probe, 0.5/1/2 uM protein, 30 min, reagents as in Feng et al., gel at 4 C; fluorescent EMSA: 5x buffer (50 mM Tris pH 7.5, 250 mM NaCl, 5 mM MgCl2, 20% glycerol, 2.5 mM DTT, 2.5 mM EDTA, 250 ug/ml poly(dI-dC), 1 mg/ml BSA) used at 1x plus half volume protein dialysis buffer (20 mM HEPES pH 7.9, 200 mM NaCl, 10% glycerol, 2 mM MgCl2), gel 0.5x TBE at 4 C.
Sequence of ASCL2 DBD V13R (Q99929 50-102 V63R): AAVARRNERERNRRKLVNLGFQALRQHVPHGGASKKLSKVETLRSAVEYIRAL

The next data set addresses ASCL2 DBD R5K+V13R (human, UniProt Q99929 50-102, R55K;V63R). The data set is described as above.

The results in this text go back to publication PMC12392098, “Predicting the DNA binding specificity of transcription factor mutants using family-level biophysically interpretable machine learning”.

Residue numbers refer to the chain shown, from its start.

Sequence of ASCL2 DBD R5K (Q99929 50-102 R55K): as the sequence (Q99929 50-102 V63R) above, with R6K, R14V counted along it
Sequence of ASCL2 DBD R5K+V13R (Q99929 50-102 R55K/V63R): as the sequence (Q99929 50-102 V63R) above, with R6K counted along it

B1: CAGCTG probe (dsDNA)
DNA 1: TAGCCAATAACTTCGTCCCTCAGCTGCATATAAGGAAGATCTAACCACCAATTTGG
DNA 2: CCAAATTGGTGGTTAGATCTTCCTTATATGCAGCTGAGGGACGAAGTTATTGGCTA
Turning to B1, in the data set with ASCL2 DBD R5K, the binding result is reported as “binds”.

B2: CACGTG probe (dsDNA)
DNA 1: B1 DNA 1 with G23C, C24G
DNA 2: B1 DNA 2 with G33C, C34G
Take B2: the binding result in the data set with ASCL2 DBD V13R and with ASCL2 DBD R5K+V13R was “binds” each time.
